Target: T1, Pil1-mCherry-Atg38(161-190) (S. pombe), O94427
T1 chain: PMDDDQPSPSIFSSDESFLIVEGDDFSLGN
Conditions: remark: other sources report otherwise

PCC (Pearson correlation coefficient of colocalisation): 0.42
B1: GFP-Atg8^(P52A R67A), O94272 1-116 (natural protein)
chain: MRSQFKDDFSFEKRKTESQRIREKYPDRIPVICEKVDKSDIAAIDKKKYLVASDLTVGQFVYVIRKAIKLSPEKAIFIFIDEILPPTAALMSTIYEEHKSEDGFLYITYSGENTFG
